Test results as given in US20170081400A1 (CEPHALON, published 2017).

T1: human TL1A extracellular domain with N-terminal HIS and FLAG tag (human, UniProt O95150 72-251)
T1 construct: the whole entry is named
T1 sequence: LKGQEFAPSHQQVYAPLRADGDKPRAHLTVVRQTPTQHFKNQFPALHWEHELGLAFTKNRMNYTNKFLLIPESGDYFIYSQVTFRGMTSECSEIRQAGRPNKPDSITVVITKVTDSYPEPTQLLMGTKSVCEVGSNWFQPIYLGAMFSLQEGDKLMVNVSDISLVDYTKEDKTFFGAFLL


Key:
[1] = target: T1, human TL1A extracellular domain with …; test: SPR Run 4, purified Ab captured on Protein A, TL1A 5 ug/mL, timepoint 44
From the text: (§1) 1.5. Antibody expression and antigen binding as determined by SPR. Using a CM5 sensor chip (GE Healthcare) Protein A (Pierce) was coupled to the chip surface using an amine coupling kit (GE Healthcare). Protein A was coupled on flow cell 1 and 2 (or alternatively 3 and 4) using a BIACORE® T200. […] The amount of supernatant or purified protein (as well as the concentration) injected during the capture stage varied between runs and is specified in the header of the Tables 3-11. At the end of injection of the supernatant or purified antibody the change in response units was measured. This value was reported as Capture Level in Tables 3-11. […] The response units were measured prior to the end of the dissociation phase. […] The sensorgrams were double referenced (flow cell 2 is subtracted from flow cell 1 and a buffer blank). As there were a large number of antibody variants to screen, these were screened across different runs (Tables 3-11). […] A summary of the conditions used in each run is below:
(§2) 2.1. […] In some experiment the antibodies were purified using Protein A chromatography (See 1.4) and purified antibodies were used in BIACORE® (GE Healthcare) experiments.

[2] = target: T1, human TL1A extracellular domain with …; test: SPR Run 4, purified Ab captured on Protein A, TL1A 5 ug/mL, timepoint 220
From the text: as §1, §2

Binder	TL1A Binding Level (Early) [1] [RU]	TL1A Binding Level (Late) [2] [RU]
320-344 (antibody, human IgG1, name in Kabat numbering, V domains shown, human IgG1, lambda) VH: QVQLVQSGAEVKKPGASVKVSCKASGYTFTSYDINWVRQAPGQGLEWMGWLNPNSGNTGYAQKFQGRVTMTADRSTSTAYMELSSLRSEDTAVYYCAREVPETAAFEYWGQGTLVTVSS VL: QSVLTQPPSVSGAPGQRVTISCTSSSSDIGAGLGVHWYQQLPGTAPKLLIEGYYNRPSGVPDRFSGSKSGTSASLTITGLLPEDEGDYYCQSYDHTLSALFGGGTKLTVLG	117	87
320-348 (antibody, human IgG1, name in Kabat numbering, V domains shown, human IgG1, lambda) VH: QVQLVQSGAEVKKPGASVKVSCKASGYTFTSYDINWVRQAPGQGLEWMGWLNPNSGNTGYAQKFQGRVTMTADRSTSTAYMELSSLRSEDTAVYYCAREVPETAAFEYWGQGTLVTVSS VL: QSVLTQPPSVSGAPGQRVTISCTSSSSDIGAGLGVHWYQQLPGTAPKLLIEGYYNRPSGVPDRFSGSKSGTSASLTITGLLPEDEGDYYCQSYDYTLSALFGGGTKLTVLG	144	127
320-346 (antibody, human IgG1, name in Kabat numbering, V domains shown, human IgG1, lambda) VH: QVQLVQSGAEVKKPGASVKVSCKASGYTFTSYDINWVRQAPGQGLEWMGWLNPNSGNTGYAQKFQGRVTMTADRSTSTAYMELSSLRSEDTAVYYCAREVPETAAFEYWGQGTLVTVSS VL: QSVLTQPPSVSGAPGQRVTISCTSSSSDIGAGLGVHWYQQLPGTAPKLLIEGYYNRPSGVPDRFSGSKSGTSASLTITGLLPEDEGDYYCQSYDLTLSALFGGGTKLTVLG	126	107
320-357 (antibody, human IgG1, name in Kabat numbering, V domains shown, human IgG1, lambda) VH: QVQLVQSGAEVKKPGASVKVSCKASGYTFTSYDINWVRQAPGQGLEWMGWLNPNSGNTGYAQKFQGRVTMTADRSTSTAYMELSSLRSEDTAVYYCAREVPETAAFEYWGQGTLVTVSS VL: QSVLTQPPSVSGAPGQRVTISCTSSSSDIGAGLGVHWYQQLPGTAPKLLIEGYYNRPSGVPDRFSGSKSGTSASLTITGLLPEDEGDYYCQSYDGYLSALFGGGTKLTVLG	119	91
320-354 (antibody, human IgG1, name in Kabat numbering, V domains shown, human IgG1, lambda) VH: QVQLVQSGAEVKKPGASVKVSCKASGYTFTSYDINWVRQAPGQGLEWMGWLNPNSGNTGYAQKFQGRVTMTADRSTSTAYMELSSLRSEDTAVYYCAREVPETAAFEYWGQGTLVTVSS VL: QSVLTQPPSVSGAPGQRVTISCTSSSSDIGAGLGVHWYQQLPGTAPKLLIEGYYNRPSGVPDRFSGSKSGTSASLTITGLLPEDEGDYYCQSYDGKLSALFGGGTKLTVLG	53	30
320-356 (antibody, human IgG1, name in Kabat numbering, V domains shown, human IgG1, lambda) VH: QVQLVQSGAEVKKPGASVKVSCKASGYTFTSYDINWVRQAPGQGLEWMGWLNPNSGNTGYAQKFQGRVTMTADRSTSTAYMELSSLRSEDTAVYYCAREVPETAAFEYWGQGTLVTVSS VL: QSVLTQPPSVSGAPGQRVTISCTSSSSDIGAGLGVHWYQQLPGTAPKLLIEGYYNRPSGVPDRFSGSKSGTSASLTITGLLPEDEGDYYCQSYDGWLSALFGGGTKLTVLG	109	86
320-355 (antibody, human IgG1, name in Kabat numbering, V domains shown, human IgG1, lambda) VH: QVQLVQSGAEVKKPGASVKVSCKASGYTFTSYDINWVRQAPGQGLEWMGWLNPNSGNTGYAQKFQGRVTMTADRSTSTAYMELSSLRSEDTAVYYCAREVPETAAFEYWGQGTLVTVSS VL: QSVLTQPPSVSGAPGQRVTISCTSSSSDIGAGLGVHWYQQLPGTAPKLLIEGYYNRPSGVPDRFSGSKSGTSASLTITGLLPEDEGDYYCQSYDGLLSALFGGGTKLTVLG	102	76
320-352 (antibody, human IgG1, name in Kabat numbering, V domains shown, human IgG1, lambda) VH: QVQLVQSGAEVKKPGASVKVSCKASGYTFTSYDINWVRQAPGQGLEWMGWLNPNSGNTGYAQKFQGRVTMTADRSTSTAYMELSSLRSEDTAVYYCAREVPETAAFEYWGQGTLVTVSS VL: QSVLTQPPSVSGAPGQRVTISCTSSSSDIGAGLGVHWYQQLPGTAPKLLIEGYYNRPSGVPDRFSGSKSGTSASLTITGLLPEDEGDYYCQSYDGDLSALFGGGTKLTVLG	101	63
320-359 (antibody, human IgG1, name in Kabat numbering, V domains shown, human IgG1, lambda) VH: QVQLVQSGAEVKKPGASVKVSCKASGYTFTSYDINWVRQAPGQGLEWMGWLNPNSGNTGYAQKFQGRVTMTADRSTSTAYMELSSLRSEDTAVYYCAREVPETAAFEYWGQGTLVTVSS VL: QSVLTQPPSVSGAPGQRVTISCTSSSSDIGAGLGVHWYQQLPGTAPKLLIEGYYNRPSGVPDRFSGSKSGTSASLTITGLLPEDEGDYYCQSYDGTSSALFGGGTKLTVLG	57	27
320-360 (antibody, human IgG1, name in Kabat numbering, V domains shown, human IgG1, lambda) VH: QVQLVQSGAEVKKPGASVKVSCKASGYTFTSYDINWVRQAPGQGLEWMGWLNPNSGNTGYAQKFQGRVTMTADRSTSTAYMELSSLRSEDTAVYYCAREVPETAAFEYWGQGTLVTVSS VL: QSVLTQPPSVSGAPGQRVTISCTSSSSDIGAGLGVHWYQQLPGTAPKLLIEGYYNRPSGVPDRFSGSKSGTSASLTITGLLPEDEGDYYCQSYDGTQSALFGGGTKLTVLG	86	53
320-364 (antibody, human IgG1, name in Kabat numbering, V domains shown, human IgG1, lambda) VH: QVQLVQSGAEVKKPGASVKVSCKASGYTFTSYDINWVRQAPGQGLEWMGWLNPNSGNTGYAQKFQGRVTMTADRSTSTAYMELSSLRSEDTAVYYCAREVPETAAFEYWGQGTLVTVSS VL: QSVLTQPPSVSGAPGQRVTISCTSSSSDIGAGLGVHWYQQLPGTAPKLLIEGYYNRPSGVPDRFSGSKSGTSASLTITGLLPEDEGDYYCQSYDGTLAALFGGGTKLTVLG	124	109
320-358 (antibody, human IgG1, name in Kabat numbering, V domains shown, human IgG1, lambda) VH: QVQLVQSGAEVKKPGASVKVSCKASGYTFTSYDINWVRQAPGQGLEWMGWLNPNSGNTGYAQKFQGRVTMTADRSTSTAYMELSSLRSEDTAVYYCAREVPETAAFEYWGQGTLVTVSS VL: QSVLTQPPSVSGAPGQRVTISCTSSSSDIGAGLGVHWYQQLPGTAPKLLIEGYYNRPSGVPDRFSGSKSGTSASLTITGLLPEDEGDYYCQSYDGTASALFGGGTKLTVLG	82	50
320-351 (antibody, human IgG1, name in Kabat numbering, V domains shown, human IgG1, lambda) VH: QVQLVQSGAEVKKPGASVKVSCKASGYTFTSYDINWVRQAPGQGLEWMGWLNPNSGNTGYAQKFQGRVTMTADRSTSTAYMELSSLRSEDTAVYYCAREVPETAAFEYWGQGTLVTVSS VL: QSVLTQPPSVSGAPGQRVTISCTSSSSDIGAGLGVHWYQQLPGTAPKLLIEGYYNRPSGVPDRFSGSKSGTSASLTITGLLPEDEGDYYCQSYDGQLSALFGGGTKLTVLG	112	83
320-350 (antibody, human IgG1, name in Kabat numbering, V domains shown, human IgG1, lambda) VH: QVQLVQSGAEVKKPGASVKVSCKASGYTFTSYDINWVRQAPGQGLEWMGWLNPNSGNTGYAQKFQGRVTMTADRSTSTAYMELSSLRSEDTAVYYCAREVPETAAFEYWGQGTLVTVSS VL: QSVLTQPPSVSGAPGQRVTISCTSSSSDIGAGLGVHWYQQLPGTAPKLLIEGYYNRPSGVPDRFSGSKSGTSASLTITGLLPEDEGDYYCQSYDGSLSALFGGGTKLTVLG	130	118
320-347 (antibody, human IgG1, name in Kabat numbering, V domains shown, human IgG1, lambda) VH: QVQLVQSGAEVKKPGASVKVSCKASGYTFTSYDINWVRQAPGQGLEWMGWLNPNSGNTGYAQKFQGRVTMTADRSTSTAYMELSSLRSEDTAVYYCAREVPETAAFEYWGQGTLVTVSS VL: QSVLTQPPSVSGAPGQRVTISCTSSSSDIGAGLGVHWYQQLPGTAPKLLIEGYYNRPSGVPDRFSGSKSGTSASLTITGLLPEDEGDYYCQSYDWTLSALFGGGTKLTVLG	149	130
320-349 (antibody, human IgG1, name in Kabat numbering, V domains shown, human IgG1, lambda) VH: QVQLVQSGAEVKKPGASVKVSCKASGYTFTSYDINWVRQAPGQGLEWMGWLNPNSGNTGYAQKFQGRVTMTADRSTSTAYMELSSLRSEDTAVYYCAREVPETAAFEYWGQGTLVTVSS VL: QSVLTQPPSVSGAPGQRVTISCTSSSSDIGAGLGVHWYQQLPGTAPKLLIEGYYNRPSGVPDRFSGSKSGTSASLTITGLLPEDEGDYYCQSYDGALSALFGGGTKLTVLG	112	88
320-353 (antibody, human IgG1, name in Kabat numbering, V domains shown, human IgG1, lambda) VH: QVQLVQSGAEVKKPGASVKVSCKASGYTFTSYDINWVRQAPGQGLEWMGWLNPNSGNTGYAQKFQGRVTMTADRSTSTAYMELSSLRSEDTAVYYCAREVPETAAFEYWGQGTLVTVSS VL: QSVLTQPPSVSGAPGQRVTISCTSSSSDIGAGLGVHWYQQLPGTAPKLLIEGYYNRPSGVPDRFSGSKSGTSASLTITGLLPEDEGDYYCQSYDGHLSALFGGGTKLTVLG	97	73
